Legend:
Etanercept [1] = molecular target: Etanercept (UniProt P20333); assay: SEC-MALS; untreated formulation diluted 25 times in water to 2 mg/ml; BioResolve SEC mAb column, 50 mM phosphate buffer pH 7, 200 mM KCl, 30°C, 0.5 ml/min
Etanercept [2] = molecular target: Etanercept (UniProt P20333); assay: SEC-MALS; formulation after forced degradation (stirring at 600 rpm, 60°C, 2 h); BioResolve SEC mAb column, 50 mM phosphate buffer pH 7, 200 mM KCl, 30°C, 0.5 ml/min

A stoichiometry N (Etanercept [1]) of 3 and a stoichiometry N (Etanercept [2]) of 23 were found for “Etanercept (from UniProt P20333 23-257) (Fc fusion)” in this work.

— paper PMC8686473
